From the RNAGym collection of RNA variant scans (doi:10.7554/elife.80360) come the findings set out here.

B1: Hairpin Ribozyme (parent)
chain: GUCCUCUUUCACGUGCGCGUGAAAGAGAGAAGUGAACCAGAGAAACACACGUUGUGGUAUAUUACCUGGUA

In the data set the parent is B1. Kind of data set: self-cleavage, relative activity (ratio to wild type); higher = more cleavage; co-transcriptional.
For the variant GUCCUAUUUCACGUGCGCGUGAAAGAUAGAAGUGAACCAGAGAAACACACGUUGUGGUAUAUUACCUGGUA [C6A G27U], the self-cleavage was 0.121.
Under GUCCUCUUUCACGUGCGCGUGAAAGAGAGAAGUGAACCAGAGAAACAUACGUGGUGGUAUAUUACCUGGUA [C48U U53G] stands 0.112.
As for GUCCUCUUUCACGUGCGCGUGUAAGAGAGAAGUGAACCAGAGAAACAAACGUUGUGGUAUAUUACCUGGUA [A22U C48A], the figure is 0.16; as for GUCCUUUUUCACGUGCGCGUGAAAGAGAGACGUGAACCAGAGAAACACACGUUGUGGUAUAUUACCUGGUA [C6U A31C], 0.0728.
In the case of GUCCUCUUUCACGUGCGCGUGAAAGAGAGAAGUGAACCAGAGAAACACACGUUGUGGUGGAUUACCUGGUA [A59G U60G], the self-cleavage came to 0.311.
Under GUCCUCUUUCACGUGCGCGUGAAAGAGAGAAGUGAACCAGAGAAACACACGUUCUGGUAUCUUACCUGGUA [G54C A61C] stands 0.183; under GUCCUCUUUCACGUGCCCGUGAAAGAGAGAAGUGAACCAGAGAAACACACGUUGUGGUAUAUUGCCUGGUA [G17C A64G], 0.592; under GUCCUCUUUCACGUGCGCGUGAAAGAGAGUAAUGAACCAGAGAAACACACGUUGUGGUAUAUUACCUGGUA [A30U G32A], 0.183.
Turning to GUCCUCUUUCACGUGUGCGUGAAAGAGAGAAGUGAACCAGAGAAACACACGUUGUGGUAUAUUACCUCGUA [C16U G68C], the self-cleavage is 0.22.
Under GUCCUCUUUCACGUGCGCGUGAAUGAGAGAAGUGAACCAGAGAAACACACGUUAUGGUAUAUUACCUGGUA [A24U G54A] stands 0.472.
For the variant GUCCUCUUUCACGUGCGCGUGUAAGAGAGAAGUGAACCAGAGAAACUCACGUUGUGGUAUAUUACCUGGUA [A22U A47U], the self-cleavage was 0.202.
Under GUCCUCUUUCGCGUGCGCGUGAAAGAGAGAGGUGAACCAGAGAAACACACGUUGUGGUAUAUUACCUGGUA [A11G A31G] stands 0.728; under GUCCUCUUUUACGUGCGCGUGAAAGAGAGAAGUGAACCAGAGAACCACACGUUGUGGUAUAUUACCUGGUA [C10U A45C], 0.159; under GUCCUUUUUCACGUGCGCGUGAAAGAGAGAAGUGAACCAGAGAAACACACGUUGUGGUAUAUUACCUCGUA [C6U G68C], 0.154.
As for GUCCUCUUUCACGUGUGCGUGAAAGAGAGAAGUGAACCAGAGAAACACACGUCGUGGUAUAUUACCUGGUA [C16U U53C], the figure is 0.564; as for GUCCUCUUUCACGUGCGCGUGAAAGAGAGAAGUGAACCAGAGAAACACACGUUGUGGUAAAUUACCCGGUA [U60A U67C], 0.155; as for GUCCUCUUUCACGUGCGCGUGAAAGAGAGAAGUGAACCAGAGAAACUCACGUUGUGGUAUUUUACCUGGUA [A47U A61U], 0.211.
Take GUCCACUUUCACGUGCGCGUGAAAGAGAGAAGUGAACCAGAGAAACACACGUUGUGGUAUAUUACCUGGUG [U5A A71G]: the self-cleavage is 0.264.
As to GUCCUCUUUCUCGUGCGCGUGAACGAGAGAAGUGAACCAGAGAAACACACGUUGUGGUAUAUUACCUGGUA [A11U A24C], the self-cleavage came to 0.211.
Under GUCCUCUUGCACGUGCGCGUGAAAGAGAGAAGUGAACCAGAGAAACACACGUUGUGGUAUAUUACUUGGUA [U9G C66U] stands 0.429; under GUCCUCUUUCACGUGCGCGUGAAAGAGAGAAGUGAACCAGAGAACCACACGUUGUGGUAUAUUACCUGGCA [A45C U70C], 0.241; under GUCCUCUUUCACGUGCGCGUGAAAGAGAGAAGUGAACCAGAGAGACACACGUUGUGGUAUAUUACCUUGUA [A44G G68U], 0.173.
Under GUCCUCUUUCACGUGCACGUGAAAGAGAGAAGUGAAACAGAGAAACACACGUUGUGGUAUAUUACCUGGUA [G17A C37A] stands 0.251; under GUCCUCUUUCACGUGCGCGUGAAAGAGAGGAGUGAACCGGAGAAACACACGUUGUGGUAUAUUACCUGGUA [A30G A39G], 0.127; under GUCCUCUUUCACGUGCGCGUGAAAGAGAGAAAUGAACCAGAGUAACACACGUUGUGGUAUAUUACCUGGUA [G32A A43U], 0.0753.
As for GUCCUCUUUCACGUGCGGGUGAAAGAGAGAAGUGAACCAGAGAAACAUACGUUGUGGUAUAUUACCUGGUA [C18G C48U], the figure is 0.11; as for GUCCUCUUUCACGUGCGCGUGAAAGAGAGAAGUGAACCAGAGAAACUCACGUUGUGGUAUAUUACCUGGAA [A47U U70A], 0.276.
For the variant GUACUCUUUCACGUGCGCGUGAAAGAGAGAAGUGAACCAUAGAAACACACGUUGUGGUAUAUUACCUGGUA [C3A G40U], the self-cleavage worked out at 0.194.
As for GUCCUCUUUCACGUGCGCGUGAAAGAGAGAAGUGAACCAGAGAAACACUCGUUGUGGUAUACUACCUGGUA [A49U U62C], the figure is 0.196; as for GUCCUCUUUCACGUGCGCGUGAAAGAGAGAAGUGAACCAGAGAAACACACGAUGUGGAAUAUUACCUGGUA [U52A U58A], 0.818.
On to GUCCUCUUUCACGUGCGCCUGAAAGAGAGAAGUGAACCAGAGAAACACACGUUGUGGUGUAUUACCUGGUA [G19C A59G], for which the self-cleavage came to 0.153.
As for GUCCUCUUUCACGUGCGCGUGAAAGAGAGAAGUGAACCAGCGAAAGACACGUUGUGGUAUAUUACCUGGUA [A41C C46G], the figure is 0.117; as for GUCCUCUUUCACGUGCGCGUGAAAGAGAGAAGUGAACCAGAGAAACACACGUAGUGGUAUAAUACCUGGUA [U53A U62A], 0.266; as for GUCCUCUUUCACGUGCGCGUGAAAGAGAGAAGUGAACCCGAGAAACAUACGUUGUGGUAUAUUACCUGGUA [A39C C48U], 0.145.
Under GUCCUCUUUCACCUGCGCGUGAAAGAGAGAAGUGAACCAGAGAAACACACGUUGUGGUAUAUUACCUGGUG [G13C A71G] stands 0.823; under GUCCGCUUUCACGUGCGCGUGAAAGAGAGAAGGGAACCAGAGAAACACACGUUGUGGUAUAUUACCUGGUA [U5G U33G], 0.0612.
As for GUCCUCUUUGACGUGCGCGUGAAAGAGAGAAAUGAACCAGAGAAACACACGUUGUGGUAUAUUACCUGGUA [C10G G32A], the figure is 0.163.
On to GUCCGCUUUCACGUGCGCGUGAAAGAGAGAAAUGAACCAGAGAAACACACGUUGUGGUAUAUUACCUGGUA [U5G G32A], for which the self-cleavage came out at 0.0653.
